Test results reported in US20230380451A1, “MEANS AND METHODS TO DETOXIFY MYCOTOXINS” (priority 2020, published 2023).

How the values were obtained:
[1] = system: translation of firefly luciferase; type: biochemical
Experimental: To determine whether or not the conversion of DON into epi-THS through Akr I-III and the conversion of DON into THS through ADH-Lk, as described herein, leads to a decrease in toxicity, two assays were performed. The in vitro TNT® Quick Coupled Transcription/Translation System (Promega) was used to measure how well the metabolites inhibit protein synthesis and the CeIITox™ Green Cytotoxicity Assay (Promega; […].
For the in vitro transcription/translation assay, 40 μl of the TNT T7 quick master mix were mixed with 2 μl firefly luciferase encoding DNA and with 4 μl metabolites to obtain final concentrations from 0.01 μM-150 μM in the reaction. Reactions lacking metabolites were the reference for maximum luminescence output. Reactions were incubated at 30° C. for 90 min to allow for transcription of luciferase gene and subsequent translation. In an opaque (white) 96-well plate (Greiner Bio One) 100 μl Luciferase reagent where mixed with 4 μl of the reactions and immediately placed into a Synergy HT plate reader (Biotek) to read luminescence with a 2 sec and a 10 sec measurement delay. […].

[2] = DON transformation assay with ADH-Lk; type: biochemical; conditions: for DON / THS [peak area]: 30° C.
Experimental: . All components of the reaction except of isopropanol and NADP+ were mixed on ice and a 0 minutes sample was removed (mix sample 1:1 (v/v) with 100% methanol to stop any reaction). Immediately thereafter, reaction mixtures were transferred to the heating block and the reaction was started by adding NADP+ and IPA. The reaction was allowed to proceed for 22 hours at 30° C. A control reaction with the same set up, but lacking the enzyme was set up in parallel. Samples were removed in regular intervals in order to monitor the progression of the reaction and immediately mixed 1:1 (v/v) with 100% methanol to stop the reaction. They were subsequently analyzed using the HPLC-MS/MS method described in below.
For HPLC-MS/MS analysis, DON and THS were separated on a 150 mm×2.1 mm Phenomenex Kinetex Biphenyl column with a particle size of 2.6 μm. The mobile phase consisted of a mixture of methanol and ultrapure water with 0.1% (v/v) acetic acid. Ions were generated using electro spray ionization (ESI) in negative ionization mode. The quantification is done using a QTrap and/or triple quadrupole mass detector. […].

## 8-amino-DON [Akr 8-amino-DON]
[1]
  times weaker effect on luminescence output compared to DON: 5-10 times

B1: ADH-Lk: artificial amino acid sequence, variant of a wild type alcohol dehydrogenase (protein)
chain: MTDRLKGKVAIVTGGTHGIGLAIATKFVTEGAKVVITGRRADVGEKAAKSIGGTDVIRFVQHDVSDEAGWGKLFDTTEETFGPVTTLVNNAGIGYRKSVEDTTTEEWRKLLSVNLDGVFFGTRLGIQRMKCKGLGASIINMSSILGQVGDPATGAYSASKGAVRIMSKSAALLCALKDYDVRVNTVHPGPIKTPLMDDMPGAEEMMSQRTKTPMGHIGEPNDIAWVCVYLASDESKFATGAEFVVDGGYTAQ
modifications: ADH-Lk
[2]; time 0 h
  DON: 399.9 µg/L
[2]; time 3.5 h
  DON: 387.1 µg/L
  THS [peak area]: 7.88E+03
[2]; time 22 h
  DON: 296.6 µg/L
  THS [peak area]: 1.13E+05
[2]; presence of enzyme in the reaction
  production of THS from DON: leads to the production of THS from DON
